Target: the molecule itself
Experiment: […]

B1: Hendra virus PNT3 (aa 200–310 of the P/V/W proteins), wild type, full-length PNT3 (domain or fragment)
chain: TPTEEPPVIPEYYYGSGRRGDLSKSPPRGNVNLDSIKIYTSDDEDENQLEYEDEFAKSSSEVVIDTTPEDNDSINQEEVVGDPSDQGLEHPFPLGKFPEKEETPDVRRKDS
binding result: binds

From paper PMC11845978 (Protein Science : A Publication of the Protein Society, 2025)
